In the assay the target is T1, surface-exposed domain of TraN (TraN^surf), N-terminal hexa-histidine tag (Salmonella enterica serovar Typhimurium …).
T1 chain: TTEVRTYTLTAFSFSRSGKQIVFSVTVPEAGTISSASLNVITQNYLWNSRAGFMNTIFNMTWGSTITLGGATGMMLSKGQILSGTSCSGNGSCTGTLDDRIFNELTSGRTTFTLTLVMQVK
Nature of the assay: ITC.

Consider one molecule from paper doi:10.1101/2023.12.03.569830 (bioRxiv, 2023).

B1: Nb^traN (TraN-specific nanobody), C-terminal hexa-histidine tag (VHH)
VHH: QVQLQESGGGLVQAGGSLRLSCAASGTIFDGVDMGWYRQAPGKEREFVAGITAGSSTYYADSVKGRFTISRDNAKNTVYLQMNSLKPEDTAVYYCAAYPLDEIGSHDPHSYWGQGTQVTVSS
In turn, B1 showed an equilibrium dissociation constant (Kd) of 4.45 µM. This counts as single-digit micromolar.
